Measurements taken from patent US20040121942A1 (University of California, published 2004).
Where a chain is given by its changes, count along the chain named. Numbers in names are those of the source.

What was measured:
[1] = molecular target: T1, endogenous wild-type PLB of rat cardiac myocytes (rat, UniProt P61016 1-52); experiment: cell-based or functional assay
T1 sequence (looked up): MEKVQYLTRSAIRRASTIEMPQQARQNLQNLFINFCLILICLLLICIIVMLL

[2] = molecular target: T2, sense PLB (wild-type phospholamban) expressed from a recombinant adenovirus (human, UniProt P26678 1-52); experiment: Western blot of Sol8 cells co-infected with sPLB and K3E/R14E; bands read as heteropentamer
T2 construct: ID; PLB exists as pentamer and monomer; also called sPLB; wild-type PLB
T2 sequence: T1 sequence (looked up) with N27K

B1: K3E/R14E double point mutation of PLB expressed from a recombinant adenovirus (other)
chain: T1 sequence (looked up) with K3E, R14E, N27K
notes: ID
Question: What does the source list for B1?
Answer: lowering of the EC50 of Ca2+ for SR Ca2+ uptake, adult rat myocytes [1]: 36%; binding result [2]: binds
